Reference: the RNAGym collection of RNA variant scans (doi:10.1093/molbev/msab373)

B1: Azoarcus group I ribozyme (parent)
chain: GUGCCUUGCGCCGGGAAACCACGCAAGGGAUGGUGUCAAAUUCGGCGAAACCUAAGCGCCCGCCCGGGCGUAUGGCAACGCCGAGCCAAGCUUCGGCGCCUGCGCCGAUGAAGGUGUAGAGACUAGACGGCACCCACCUAAGGCAAACGCUAUGGUGAAGGCAUAGUCCAGGGAGUGGCGAAAGUCACACAAACCGG

Variants of: B1
Test: reverse-splicing fitness (ratio to wild type); higher = more active; in vitro selection; Mg2+ level not given
Outline: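 An in vitro group I ribozyme library with randomized positions was T7-transcribed and gel-purified. In triplicate, 10 pmol RNA in EPPS pH 7.5 was reacted with 50 pmoles of a 30-nt RNA substrate for 1 h at 37 °C across several added MgCl2 levels (1–48 mM), then stopped with EDTA. Products were reverse transcribed from a substrate-complementary primer, PCR-amplified and sequenced (HiSeq 4000). Fitness is a variant's read proportion after selection over that before, normalised to wild type.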

In order of falling reverse-splicing fitness:
1. GUGCCUUGCGCCGGGAAACCACGCAAGGGAUGGUGUCAAAUUCGGCGAAACCUAAGCGCCCGCCCGGGCGUAUGGCAACGCCGAGCCAAGCUUCGGCGCCUGCGCCGAUGGAGGUGUAGAGACUAGACGGCACCCACCUAAGGCGAACGCUAUGGUGAAGGCAUAGUCCAGGGAGUGGCGAAAGUCACACAAACCGG [A111G A145G]  0.9
2. GUGCCUUGCGCCGGGAAACCACGCAAGGGAUGGUGUCAAAUUCGGCGAAACCUAAGCGCCCGCCCGGGCGUAUGGCAACGCCGAGCCAAGCUUCGGCGCCUGCGCCGAUGGAGGUGUAGAGACUAGACGGCACCCACCUAAGGCCAACGCUAUGGUGAAGGCAUAGUCCAGGGAGCGGCGAAAGUCACACAAACCGG [A111G A145C U176C]  0.78
3. GUGCCUUGCGCCGGGAAACCACGCAAGGGAUGGUGUCAAAUUCGGCGAAACCUAAGCGCCCGCCCGGGCGUAUGGCAACGCCGAGCCAAGCUUCGGCGCCUGCGCCGAUGGAGGUGUAGAGACUAGACGGCACCCACCUAAGGCCAACGCUAUGGUGAAGGCAUAGUCCAGGGAGAGGCGAAAGUCACACAAACCGG [A111G A145C U176A]  0.718
4. GUGCCUUGCGCCGGGAAACCACGCAAGGGAUGGUGUCAAAUUCGGCGAAACCUAAGCGCCCGCCCGGGCGUAUGGCAACGCCGAGCCAAGCUUCGGCGCCUGCGCCGAUGGAGGUGUAGAGACUAGACGGCACCCACCUAAGGCGAACGAUAUGGUGAAGGCAUAGUCCAGGGAGUGGCGAAAGUCACACAAACCGG [A111G A145G C150A]  0.517
5. GUGCCUUGCGCCGGGAAACCACGCAAGGGAUGGUGUCAAAUUCGGCGAAACCUAAGCGCCCGCCCGGGCGUAUGGCAACGCCGAGCCAAGCUUCGGCGCCUGCGCCGAUGGAGGUGUAGAGACUAGACGGCACCCACCUAAGGCCAACGCUAUGGUGAAGGCAUAGUCCAGGGAGGGGCGAAAGUCACACAAACCGG [A111G A145C U176G]  0.448
6. GUGCCUUGCGCCGGGAAACCACGCAAGGGAUGGUGUCAAAUUCGGCGAAACCUAAGCGCCCGCCCGGGCGUAUGGCAACGCCGAGCCAAGCUUCGGCGCCUGCGCCGAUGGAGGUGUAGAGACUAGACGGCACCCACCUAAGGCGAACGGUAUGGUGAAGGCAUAGUCCAGGGAGUGGCGAAAGUCACACAAACCGG [A111G A145G C150G]  0.364
7. GUGCCUUGCGCCGGGAAACCACGCAAGGGAUGGUGUCAAAUUCGGCGAAACCUAAGCGCCCGCCCGGGCGUAUGGCAACGCCGAGCCAAGCUUCGGCGCCUGCGCCGAUGGAGGUGUAGAGACUAGACGGCACCCACCUAAGGCGAACGAUAUGGUGAAGGCAUAGUCCAGGGAGCGGCGAAAGUCACACAAACCGG [A111G A145G C150A U176C]  0.32
8. GUGCCUUGCGCCGGGAAACCACGCAAGGGAUGGUGUCAAAUUCGGCGAAACCUAAGCGCCCGCCCGGGCGUAUGGCAACGCCGAGCCAAGCUUCGGCGCCUGCGCCGAUGGAGGUGUAGAGACUAGACGGCACCCACCUAAGGCGAACGAUAUGGUGAAGGCAUAGUCCAGGGAGAGGCGAAAGUCACACAAACCGG [A111G A145G C150A U176A]  0.297
9. GUGCCUUGCGCCGGGAAACCACGCAAGGGAUGGUGUCAAAUUCGGCGAAACCUAAGCGCCCGCCCGGGCGUAUGGCAACGCCGAGCCAAGCUUCGGCGCCUGCGCCGAUGGAGGUGUAGAGACUAGACGGCACCCACCUAAGGCCAACGCUAUGGUGAAGGCAUAGUCUAGGGAGUGGCGAAAGUCACACAAACCGG [A111G A145C C169U]  0.188
10. GUGCCUUGCGCCGGGAAACCACGCAAGGGAUGGUGUCAAAUUCGGCGAAACCUAAGCGCCCGCCCGGGCGUAUGGCAACGCCGAGCCAAGCUUCGGCGCCUGCGCCGAUGGAGGUGUAGAGACUAGACGGCACCCACCUAAGGCCAACGCUAUGGUGAAGGCAUAGUCGAGGGAGUGGCGAAAGUCACACAAACCGG [A111G A145C C169G]  0.116
11. GUGCCUUGCGCCGGGAAACCACGCAAGGGAUGGUGUCAAAUUCGGCGAAACCUAAGCGCCCGCCCGGGCGUAUGGCAACGCCGAGCCAAGCUUCGGCGCCUGCGCCGAUGGAGGUGUAGAGACUAGACGGCACCCACCUAAGGCGAACGAUAUGGUGAAGGCAUAGUCCAGGGAGGGGCGAAAGUCACACAAACCGG [A111G A145G C150A U176G]  0.109
12. GUGCCUUGCGCCGGGAAACCACGCAAGGGAUGGUGUCAAAUUCGGCGAAACCUAAGCGCCCGCCCGGGCGUAUGGCAACGCCGAGCCAAGCUUCGGCGCCUGCGCCGAUGGAGGUGUAGAGACUAGACGGCACCCACCUAAGGCCAACGCUAUGGUGAAGGCAUAGUCUAGGGAGCGGCGAAAGUCACACAAACCGG [A111G A145C C169U U176C]  0.0591
13. GUGCCUUGCGCCGGGAAACCACGCAAGGGAUGGUGUCAAAUUCGGCGAAACCUAAGCGCCCGCCCGGGCGUAUGGCAACGCCGAGCCAAGCUUCGGCGCCUGCGCCGAUGGAGGUGUAGAGACUAGACGGCACCCACCUAAGGCCAACGCUAUGGUGAAGGCAUAGUCUAGGGAGAGGCGAAAGUCACACAAACCGG [A111G A145C C169U U176A]  0.0432
14. GUGCCUUGCGCCGGGAAACCACGCAAGGGAUGGUGUCAAAUUCGGCGAAACCUAAGCGCCCGCCCGGGCGUAUGGCAACGCCGAGCCAAGCUUCGGCGCCUGCGCCGAUGGAGGUGUAGAGACUAGACGGCACCCACCUAAGGCCAACGCUAUGGUGAAGGCAUAGUCGAGGGAGCGGCGAAAGUCACACAAACCGG [A111G A145C C169G U176C]  0.0431
15. GUGCCUUGCGCCGGGAAACCACGCAAGGGAUGGUGUCAAAUUCGGCGAAACCUAAGCGCCCGCCCGGGCGUAUGGCAACGCCGAGCCAAGCUUCGGCGCCUGCGCCGAUGGAGGUGUAGAGACUAGACGGCACCCACCUAAGGCGAACGAUAUGGUGAAGGCAUAGUCUAGGGAGUGGCGAAAGUCACACAAACCGG [A111G A145G C150A C169U]  0.0371
16. GUGCCUUGCGCCGGGAAACCACGCAAGGGAUGGUGUCAAAUUCGGCGAAACCUAAGCGCCCGCCCGGGCGUAUGGCAACGCCGAGCCAAGCUUCGGCGCCUGCGCCGAUGGAGGUGUAGAGACUAGACGGCACCCACCUAAGGCCAACGCUAUGGUGAAGGCAUAGUCGAGGGAGAGGCGAAAGUCACACAAACCGG [A111G A145C C169G U176A]  0.0344
17. GUGCCUUGCGCCGGGAAACCACGCAAGGGAUGGUGUCAAAUUCGGCGAAACCUAAGCGCCCGCCCGGGCGUAUGGCAACGCCGAGCCAAGCUUCGGCGCCUGCGCCGAUGGAGGUGUAGAGACUAGACGGCACCCACCUAAGGCGAACGAUAUGGUGAAGGCAUAGUCGAGGGAGCGGCGAAAGUCACACAAACCGG [A111G A145G C150A C169G U176C]  0.0276
18. GUGCCUUGCGCCGGGAAACCACGCAAGGGAUGGUGUCAAAUUCGGCGAAACCUAAGCGCCCGCCCGGGCGUAUGGCAACGCCGAGCCAAGCUUCGGCGCCUGCGCCGAUGGAGGUGUAGAGACUAGACGGCACCCACCUAAGGCGAACGAUAUGGUGAAGGCAUAGUCUAGGGAGCGGCGAAAGUCACACAAACCGG [A111G A145G C150A C169U U176C]  0.0251
19. GUGCCUUGCGCCGGGAAACCACGCAAGGGAUGGUGUCAAAUUCGGCGAAACCUAAGCGCCCGCCCGGGCGUAUGGCAACGCCGAGCCAAGCUUCGGCGCCUGCGCCGAUGGAGGUGUAGAGACUAGACGGCACCCACCUAAGGCGAACGAUAUGGUGAAGGCAUAGUCGAGGGAGUGGCGAAAGUCACACAAACCGG [A111G A145G C150A C169G]  0.0238
20. GUGCCUUGCGCCGGGAAACCACGCAAGGGAUGGUGUCAAAUUCGGCGAAACCUAAGCGCCCGCCCGGGCGUAUGGCAACGCCGAGCCAAGCUUCGGCGCCUGCGCCGAUGGAGGUGUAGAGACUAGACGGCACCCACCUAAGGCGAACGAUAUGGUGAAGGCAUAGUCGAGGGAGAGGCGAAAGUCACACAAACCGG [A111G A145G C150A C169G U176A]  0.0234
21. GUGCCUUGCGCCGGGAAACCACGCAAGGGAUGGUGUCAAAUUCGGCGAAACCUAAGCGCCCGCCCGGGCGUAUGGCAACGCCGAGCCAAGCUUCGGCGCCUGCGCCGAUGGAGGUGUAGAGACUAGACGGCACCCACCUAAGGCGAACGAUAUGGUGAAGGCAUAGUCAAGGGAGCGGCGAAAGUCACACAAACCGG [A111G A145G C150A C169A U176C]  0.0214
22. GUGCCUUGCGCCGGGAAACCACGCAAGGGAUGGUGUCAAAUUCGGCGAAACCUAAGCGCCCGCCCGGGCGUAUGGCAACGCCGAGCCAAGCUUCGGCGCCUGCGCCGAUGGAGGUGUAGAGACUAGACGGCACCCACCUAAGGCGAACGAUAUGGUGAAGGCAUAGUCUAGGGAGAGGCGAAAGUCACACAAACCGG [A111G A145G C150A C169U U176A]  0.0202
23. GUGCCUUGCGCCGGGAAACCACGCAAGGGAUGGUGUCAAAUUCGGCGAAACCUAAGCGCCCGCCCGGGCGUAUGGCAACGCCGAGCCAAGCUUCGGCGCCUGCGCCGAUGGAGGUGUAGAGACUAGACGGCACCCACCUAAGGCGAACGAUAUGGUGAAGGCAUAGUCAAGGGAGAGGCGAAAGUCACACAAACCGG [A111G A145G C150A C169A U176A]  0.0183
24. GUGCCUUGCGCCGGGAAACCACGCAAGGGAUGGUGUCAAAUUCGGCGAAACCUAAGCGCCCGCCCGGGCGUAUGGCAACGCCGAGCCAAGCUUCGGCGCCUGCGCCGAUGGAGGUGUAGAGACUAGACGGCACCCACCUAAGGCGAACGAUAUGGUGAAGGCAUAGUCAAGGGAGUGGCGAAAGUCACACAAACCGG [A111G A145G C150A C169A]  0.0138
25. GUGCCUUGCGCCGGGAAACCACGCAAGGGAUGGUGUCAAAUUCGGCGAAACCUAAGCGCCCGCCCGGGCGUAUGGCAACGCCGAGCCAAGCUUCGGCGCCUGCGCCGAUGGAGGUGUAGAGACUAGACGGCACCCACCUAAGGCGAACGGUAUGGUGAAGGCAUAGUCAAGGGAGUGGCGAAAGUCACACAAACCGG [A111G A145G C150G C169A]  0.0128
26. GUGCCUUGCGCCGGGAAACCACGCAAGGGAUGGUGUCAAAUUCGGCGAAACCUAAGCGCCCGCCCGGGCGUAUGGCAACGCCGAGCCAAGCUUCGGCGCCUGCGCCGAUGGAGGUGUAGAGACUAGACGGCACCCACCUAAGGCCAACGCUAUGGUGAAGGCAUAGUCUAGGGAGGGGCGAAAGUCACACAAACCGG [A111G A145C C169U U176G]  0.00859
27. GUGCCUUGCGCCGGGAAACCACGCAAGGGAUGGUGUCAAAUUCGGCGAAACCUAAGCGCCCGCCCGGGCGUAUGGCAACGCCGAGCCAAGCUUCGGCGCCUGCGCCGAUGGAGGUGUAGAGACUAGACGGCACCCACCUAAGGCGAACGAUAUGGUGAAGGCAUAGUCUAGGGAGGGGCGAAAGUCACACAAACCGG [A111G A145G C150A C169U U176G]  0.00641
28. GUGCCUUGCGCCGGGAAACCACGCAAGGGAUGGUGUCAAAUUCGGCGAAACCUAAGCGCCCGCCCGGGCGUAUGGCAACGCCGAGCCAAGCUUCGGCGCCUGCGCCGAUGGAGGUGUAGAGACUAGACGGCACCCACCUAAGGCGAACGAUAUGGUGAAGGCAUAGUCGAGGGAGGGGCGAAAGUCACACAAACCGG [A111G A145G C150A C169G U176G]  0.00564
29. GUGCCUUGCGCCGGGAAACCACGCAAGGGAUGGUGUCAAAUUCGGCGAAACCUAAGCGCCCGCCCGGGCGUAUGGCAACGCCGAGCCAAGCUUCGGCGCCUGCGCCGAUGGAGGUGUAGAGACUAGACGGCACCCACCUAAGGCGAACGAUAUGGUGAAGGCAUAGUCAAGGGAGGGGCGAAAGUCACACAAACCGG [A111G A145G C150A C169A U176G]  0.00563
30. GUGCCUUGCGCCGGGAAACCACGCAAGGGAUGGUGUCAAAUUCGGCGAAACCUAAGCGCCCGCCCGGGCGUAUGGCAACGCCGAGCCAAGCUUCGGCGCCUGCGCCGAUGGAGGUGUAGAGACUAGACGGCACCCACCUAAGGCCAACGCUAUGGUGAAGGCAUAGUCGAGGGAGGGGCGAAAGUCACACAAACCGG [A111G A145C C169G U176G]  0.00491
